Measured values: the DeepSol protein solubility set

Assay: soluble on expression in E. coli; label from the status in PepcDB or PDB records

In the case of “MELRAVQEVLKEERLDGWLLYSFGGSNPLALEVLGLAHLHLTRRFAYLIPREGAPTLLCHAIEASLFPPLPGNRKTYHTWRGFLEGLAHLLGGMRRVALEYVPGGQIPYLSRVDGGTLDLLRGLGLELASSWPLLLLFQTWDEERLQSHRRAAAGLARAKDLALDFLRQNPEASEREVQSVLVRALEGEGLIFDHPPMVAFGKNAANPHHEPSEVRLEEGAVVLLDLWAKAPGGVYADLTWMAGKRPPEAAHRAFQAVARARDEAIAFVERAYREGRYPKGFEVDRLARKVLEEEGYGPYIRHRTGHNLGEEVHGSGPHLDDLETHDLRPLVPGLAFTVEPGVYLEAFGVRTEVDVYLHPTGPEVTTPLQEAITPL”, the “soluble on expression in E. coli” value is reported as “soluble”.
For “AAIGSCSKEYRVLLGQLQKQTDLMQDTSRLLDPYIRIQGLDVPKLREHCRERPGAFPSEETLRGLGRRGFLQTLNATLGCVLHRLADLEQRLPKAQDLERSGLNIEDLEKLQMARPNILGLRNNIYCMAQLLDNSDTAEPTKAGRGASQPPTPTPASDAFQRKLEGCRFLHGYHRFMHSVGRVFSKW”, the “soluble on expression in E. coli” value was “soluble”.
For “MGSDKIHHHHHHMTLKSRIGILAGKTAHFFLSKIGRGSTLPGKIALKCDKDILDTLAKDYDIVVVTGTNGKTLTTALTVGILKEAYGQVLTNPSGANMITGITSTFLTAKKSRNGKKIAVLEIDEASLPKITDYLKPSLFVFTNIFRDQMDRYGEIYTTYQMILDGAAKAPKATILANGDSPLFNAKTVVNPVRYYGFDTKKEAAHLAHYNTEGIVCPKCEYILQYKLNTYANLGDYICPNCGFHRPHLDYSLTQLTKISNTQAEFIIDGQDYKINVGGLYNIYNALAAVAVAEFLGVTPEQIKAGFDKSRAVFGRQETFKIGDKSCTLVLIKNPVGASQALEMIKLAPYPFTLSVLLNANYADGIDTSWIWDANFESILDMNIPQIFTGGVRHSEIARRLRVTGYNETKIEQAEKLEDILSMIEKQEADHAYILATYTAMLEFRELLASRHAVRKEMH”, the “soluble on expression in E. coli” value was “not soluble”.
For “MTKAMTAHDYLPLIEKIRKRISSWTGRFLSYCGRLQLIKSVLMSITNFWSSAFRLPGNCMKEIERLCSAFLWSGPDLKTHNAKIAWSKVCLPMCEGGLGLRPLKEINTVCGLKLIWRLLASQTSLWGQWVQTYLIRRNNFWAIKASSYQGSWMWRKLLTLRDVARSFHKKEIHNGRNTSFWYDHWSSMGTLVDVLGARGCIDLGITTTTNMENVFTTRRSRKHRGDLLVRIEAEIEAAKTRHQPDIEDIDLWKPSTGYKKTFSTRETWKLIRMAEPVCEWAKGVWFPKPHQNLLSLLGWVCTIVFQQGTECKSGTAKLTLLAFSAKTLWKQEITYSSTVTTPIKFGKL”, the “soluble on expression in E. coli” value was “not soluble”.
For “MIKTFKSKALAELYETGSSSKTDKKLFKRIIVRLDRLNVAEKPEEMNLPGFNFHALIGFHPIRYTVHINGPWCITFEFDSCNAYRVDLEQYH”, the “soluble on expression in E. coli” value was “not soluble”.
For “MTMRFSVLASGSTGNAFYIETDRQRLLVDAGLSGKQLEELFAEIGRHPKQLDALLVTHEHSDHIKGLGVLARKYRLPVYANEKTWRAMEQAVGDIPPEQKFVFPLGAVRTFGDVDVESFGVSHDAAEPMFYVFHYEGKKLALLTDTGYVSERIKKTIENADVFVFESNHDVGMLRMGRYPWSVKRRILSDVGHISNEEAGLALADVIGDRTKQIYLAHLSQDNNMKELARMTVTQVLEQKGLAVGARFRLYDTDPRRATALAYV”, the “soluble on expression in E. coli” value was “not soluble”.
In the case of “MGSDKIHHHHHHMQLSHSLRLMGTTIDIQINSKNAQKQIREVIELLELYKNRFSANDFNSELMAINNNAGIKPIQVHPDLFELITIGKEHSLARPSNLNIAIGPLVQTWRIGFSDAKLPSPSEISEAMILSDPTHILLDSNKQSVFLNQIGMKIDLGALAKGYIADKIMTYLKNEMIDSAIINLGGNVLVHGDNPNRSEGYWVIGIQHPKKKRGKNIGTVKIKNQSVVTSGTYERRLIIDDKEYHHIFDRQTGYPIQTEMASISIVSKQSVDCEIWTTRLFGLSIKEALDILNAVSYIEGIIITKDDRIYLSDGLKHHFQLFYH”, the “soluble on expression in E. coli” value is reported as “not soluble”.
For “WSKIEKEQFYIAICAMNKTIAQKLFVLMKKAKKWLLQPDVRELKRFSIIDQKQLIYSYLIYHKINVNGEKIDAILDFIQPSQQKQYRLQNDIFLMVKNQCLALLYK”, the “soluble on expression in E. coli” value was “soluble”.
In the case of “MKRKHLSGKSIGIVFGTFAPMHVGHVDLITKEKRANDNVLVIVSGSNTQKDRGTRTGLSLNRRFRNVREIFYDDELIVVDKLDEADMPPYPEGWVPWVNRVKDLITKNTDGPEKITFYVGESEYVIELNRYYPQAQVELIECSVINISATEIRDNPIENWRFITKPFRRHFTRKVLVVGSASGGKTTLVKDLARTYNAPCSLEYAREYQEKYNVRDDELDTNDYIHLLTDQYAQTAEIIDNGQHSWLIFADTNSTVTKVYIDYYLKENISQEEFDLLDRLYQVTQAREKWDLIFVILPKSNYVDDGSRDMTMADNRTRDWFTKHLLDLLSPFKDKIVILVENCDSDSFFADNYHYAKKTIKERLHIEI”, the “soluble on expression in E. coli” value is reported as “not soluble”.
In the case of “MTKCSIIIGIFLIAAINGQASKRRIQYESVSQFLFHNSKLCGDPFSDAVWLPVLDLCSIECEITSEYCVENEELTQQCKKLPEDCQALLRKAIKQIQRHIRSQKPVYL”, the “soluble on expression in E. coli” value is reported as “not soluble”.
In the case of “SAVERVEILRDGAAAQYGSDAIAGVVNIILKAKSTGGGIAYQYGGYTQGDGDQQKILGWKSFALPNDGSVTVAFDAGKRDAANNTLPDSRKFYNSSSSTNAQYNDQNTPYRTWRFGSPEIKDQINLSYNADLPLADDTSLYSFGTYGHRKTIGEGFYEPSTATAAVNQSIYYKERYPDGRIPLSIVTVDDFALTAGAKKGDQKTGKLDGFVTYGRNKVHTDQDNGINPSYGSGSPSSYSLGDNIFSQLNTGLDYSLDANTSWFYHPITVSTGILYRWEQYQQVAGDPVAYTRGPYYNVTTAPEIYSGITDADQRKIDRNVYGAYLDLETEIVKDLNVGVALRSEKYSDFGNTTNGKLTLKYDFDPKLNLRGSASTGYRAPS”, the “soluble on expression in E. coli” value is reported as “not soluble”.
With “MKILWIDLNSSYAHSSLALPALHAQIMTDPSIEWEIVSATINENTGMIVDEIYRHRPDILAATTWLFNHEQLMHVASRVKALLPEACLVLGGPEFLGDNEEFLRKNPFVDCVFRGEGEEVFPQWLTCWNHPEQWHTVPGLCYLTPNKEYKDNGIARVLNFAGLVPPEQSRFFNWSKPFVQLETTRGCFNTCAFCVSGGEKPVRTLSIESIRERLQLIHAHGIKNVRVLDRTFNYNPRRAKELLRLFLEFHPDIRFHLEIHPALLSEELKEELSLLPKGLLHLEAGIQSLREPVLEKSRRMGKLSDALDGLRFLCALPNMETHADLIAGLPLYHLHEIFEDVRTLAGYAAGEIQLESLKLLPGTEMRRRAEELGIKYSPLPPYEVLQTHEISVSELQTARQLSRLLDGFYNTPAWQALTRELILNDEQFLHRFLAYLTKANLIDQPMSLEKRGLILYEFCKQNYPEYQIQAAIAWIEAGMSLKKLPAEKVWTKRQIPPATWNIIYGEYKESLRLCFLPADEKGEHGYWFGFESEIQKASPVFKART” the “soluble on expression in E. coli” value was “not soluble”.
With “MAHHHHHHMSLRLCVCTATANGEYYMSMFNKHLSSFFKTITLGSTVDDFKQDKDSKDSIILYVEGPVGHDAIKYLCDDYHLPKEQRRVLWIYSLTAGVDVYRLGELVKELQDIPFANARGCYSSVLAEHVMYSMLYFYRQTWRSLASRAEHKWDPFLMVELRGKKVGIIGYGDIGQASAKLLSAFGMEVTGVKRSASTKEVDEYGVRLVHGDAERERVLRESDFVVNILPGTEETKRFFNKELFSMMKPSAVYISIGRGITQNEDDLACALRDGVIRGASVDVFEREPLPAESPLWDISDDKLLLTAHSADRTANLVPDSVRRFIGLVNEYAKTKRLDTYLVDPVRGY” the “soluble on expression in E. coli” value was “not soluble”.
With “MSLDTENVKYRSITTKIELDDLIESLKKAKYISIDTETSSLDTYTAKLIGISISFKEFEGYYIPIEAKGKIYIEKNYIIQKFNNLFESNPKIIGQNYKFDYKILKNNGFNPIPPYFDTMIAAYLIDTNSKVSLDFLAEKYLMHKNIKYEDVIQKNDNFANISLEMATSYSSEDADITFRLFNIFTKKLKEDKLDKLMHEIEMPFNKVIIEMEENGIYLDKEYLKEYGKELGKELEAIENEIIKSIGIDFNLNSPKQMHEILFEKLNLKLPEKMKKDSTDIKVLESLREQHESIENLIKYRQIAKLKSTYTDNLIELINYKTNRLHTSFIQTKTATGRITSINPNLQNIPIKDEKGRKIRKAFKPENGNIFISADYSQIELAILAHLSQDEVLIKAFENNKDIHTETASKLFKIEEKEITPNLRRIAKSINFGIIYRMSDFRLAKELGITKEEAKGFINSYFDSYPKIKEFIINQINFVRNAGYSETILKRRRYIKEINSNNYLERSAAERIAINSIIQGSAADIMKIAMVKVFNEFKSKKMESKILLQVHDEMLIESPIEEENEVKKILKIMMETAYTLNLPLRANIETGKSWGEIHEGHHHHHH” the “soluble on expression in E. coli” value was “soluble”.
